This note sets out measurements from a protein production outcome set (Wang et al. 2014).

The data set is described as follows: label from the status in PepcDB records.
Take “MTAIRFDHVDVIFGTHTKEALKLLDQGLGRAEILKRTGQVLGVEDACLDVNRGEICVLMGLSGSGKSSLLRCINGLNKVSRGKLLIEHEGSQVDIANCSPATLKAMRTKRIAMVFQKFALMPWLTVAENVGFGLEMQGRPAAERKKLIDEKLELVGLSQWRDKRPDSLSGGMQQRVGLARALAMDGDILLMDEPFSALDPLIRQQLQDELLVLQRQLHKTIVFVSHDLDEALKIGTRIAIMKDGRIIQHGKPEEIVLSPADDYVRTFVAHTNPLNVLCGQSLMRGLDQCIRQNDEICFDQGRDCWIGLSEGDVLKGARQGSNVIDLQRWRQGDPVEKLRREPTLVDVSIRMRDALQIRYQTGHKLVLQEQDRVVGVLGDSELYHALLGKN”: the protein production entry is “failed”. The entry for “MTALPLSAVTVVSVCYNSDRLIRDLVTAIPDETPIILVDNGHTNTFADLPPHRNVIIVKLDHNLGFGRGCNAGADVAQTPWILFLNPDARLNPGAIEGLLQAAAQYPSAIAFNPRIYNEDGSPYFKRRSWLLPRQHYMKKGWPSADAVVPVLSGAALFVSKKSFDYIGGFDPSIFMYHEDDDLSLRLSALGELRFVRNSTVVHFAGYSSGRSPEIARFKAYHMAQSKIYAGQKHHRPFAKTSTLLQGCLLLLSPHVFFSARRRAKALGFLHGALAKIWSELLNAASTSSQKKTLEHHHHHH” is “not failed”; for “MTAPTLSRAAMEKVIRTYYDGCNEADEAKMIACFVPEAVHYFPAGMYGGAFRGAAQIAHRWRTAVETLGSYWTIDALVIDAETAEAAIEWTHFKTNQDKVLRGAECVEFDRASGLIREIRAFYASPQAEGIARLELGDFDYAGRGYRVTSPRKPA” it is “not failed”. As for “MTASTAPQTEPHKTSAPESGPVMLLVATIKGAWFLASDPARRTWELRGPVFLGHTIHHIVQDPREPERMLMAARTGHLGPTVFRSDDGGGNWTEATRPPAFNKAPEGETGRVVDHVFWLTPGHASEPGTWYAGTSPQGLFRSTDHGASWEPVAGFNDHPMRRAWTGGEQDGTPDGPKMHSILVDPRDPKHLYIGMSSGGVFESTDAGTDWKPLNRGCAANFLPDPNVEFGHDPHCVVQHPAAPDILYQQNHCGIYRMDRREGVWKRIGDAMPREVGDIGFPIVVHQRDPRTVWVFPMDGSDVWPRVSPGGKPAVYVTRDAGESWQRQDRGLPTDQAWLTVKRQAMTADAHAPVGVYFGTTGGEIWASADEGEHWQCIASHLPHIYAVQSARPV”, the protein production result was “not failed”. As to “MTATIPPLTPTVTPSNPDRPIADLKLQDIIKTLPKECFEKKASKAWASVLITLGAIAVGYLGIIYLPWYCLPITWIWTGTALTGAFVVGHDCGHRSFAKKRWVNDLVGHIAFAPLIYPFHSWRLLHDHHHLHTNKIEVDNAWDPWSVEAFQASPAIVRLFYRAIRGPFWWTGSIFHWSLMHFKLSNFAQRDRNKVKLSIAVVFLFAAIAFPALIITTGVWGFVKFWLMPWLVYHFWMSTFTIVHHTIPEIRFRPAADWSAAEAQLNGTVHCDYPRWVEVLCHDINVHIPHHLSVAIPSYNLRLAHGSLKENWGPFLYERTFNWQLMQQISGQCHLYDPEHGYRTFGSLKKV”, the protein production result is given as “failed”. For “MTCHNAAGALEPTGSAAKTLPDGLHALMTAEELAFFARFGRLREVSAGQSLFERGAVGTQMYIVVSGQIDLDFGEDLMLKHLGPGEFFGELGLLIGDHARSAGASASTDSRLIELAHDDFQRLVDQDPSMVAHFLRRSIVRVVNNEQLLIRQLRRRNHDLEAALDNLYVTSHQLNHTEELSRTDELTGLHNRRGLALHLQECRRAGHVPGVGLILIDCDRFKRINDEFGHLAGDRVLQNVAHALRSVIAEGDLACRLGGDEFCVLVAQGTSELVHHIGECIVRAVEARLCNGQGEQGCSVSVGSCMIDADAAWNDWYTLADSALYEAKRQGGNVLCMQETLALDQPPASGHR” the value was “failed”; for “MTCRPALSDSHPPEPGTPSSPSFGVCGDRPLLRERGQHEVFCGLAGIIWLHRKIQDAFFLIIGSRTCAHLMQSAAGVMIFAEPRFATAVLEEQDLAGLADAQDEIDRVVARLLERRPDIRLLFLVGSCPSEVIKIDLQRAALRLSKVHGARTRVVSYSGSGLETTFTQGEDACLAALVPDLPSAAADEAPDLLVVGTLPDVVEDQFGRLFAEMGIARTAFLPPRRSTALPAIGPKTRFLLAQPFLGDTARCLEARGARRLAAPFPFGVEGTTGWLAAAAQAFGVDDLTFRRVTAPGRERAARALERQRATLEGKRVFFFPESQLEIPLARFLVRELGMEAIEIGTPYLHRAHLAEELALLPATALLSEGQDVDRQLDRCRAARPDLVVCGLGLANPLEAEGITTKWSIELVFSPIHGYEQAGDLAELFARPLLRRALLKV”, “failed”; for “MTDAHTVCPKFESAFQLLGKRWTGLIINVLLTGPKRFKQVAAEIPQMSDRVLAERLKELEEMDICLRQVYPETPVRIEYELTEKGKALQEVMLEVQCWADKWVEVPN”, “failed”. For “MTDDKKIRAAIVGYGNIGRYALQALREAPDFEIAGIVRRNPAEVPFELQPFRVVSDIEQLESVDVALVCSPSREVERTALEILKKGICTADSFDIHDGILALRRSLGDAAGKSGAAAVIASGWDPGSDSVVRTLMQAIVPKGITYTNFGPGMSMGHTVAVKAIDGVKAALSMTIPLGTGVHRRMVYVELLPGHNLEEVSAAIKADEYFVHDETHVIQVDEVDALIDMGHGVRMVRKGVSGSTQNQRMSFDMEINNPALTGQVLVCAARAAMRQQPGAYTLQEIPVIDLLPGDREQWIGKLC” the value was “not failed”. “MTDFSRTFSGTPSAVLPTANRFFRPPLPSAHVARPRLCRRLRDGLDGRLLLIAAPAGFGKSSLAIEFCESLDPRWQSLWLGLSSRESDPGRFLERLLDGLRQYHPTLGEEALGLLKMRQRHQPFAFETWLDDLLDELAPCLDPQRPLLLVLDDYHLAQGAVLDRCLQFLLNHLPEGLVLLVTSRQRPDWHLARLRLSRQLLELSEQDLRLTAEESGALMAASGLELDEDALDALLERSEGWVAGLRLWLLARGDPEEQVSPGVHGADELIRDYLLEEVIERQPPEVQAFLAQTARFERFCAELCDTVREAGDSAAILDHLQQHQVFLVPLDENGQWFRYHHLFSDLLLARPLPDFGPSAGSLHLRACGWFSRHGLLDQAVEQALRAGQPDVAASLVQNLSEEQLLAEQNIATLLRWKMDLPDSLLASTPRLILLYGWALALACQLDAAEELAGQLARFLPAPDESAQRDLLAQWQALSGVIARGRGDIDKAEAHCREALQDLAGERYGTRLQCLSTLSNLAVTRGDFWQARNYNRDALEFAQRYGNPLFEALVHYDRARVLQARGEVARAEEEVRQGLERLQHLPAQRRYAVRGRLLLYRGYLRSLALQPDEARKWIKQGIEETRSCRDVSLVIGYCVLASLEGRLGNYAAAFARLGDVERLMHAWDIPPIYYLAAITLIKCELWLAQGQTELAGVWLQRLGGTYGGQAATPPECSPLLPLHVELLQAGLERREGRPEEAARRLDRLARSTRENGALLPARLALGQLAALHLEQGREREALATLQQAMEGAVGGALLPLHELLVQQPEWLREQLQRFPACPGAQRMRALLPEPPAEPAGSAGEVLSGRELAVLELIAQGLSNQEISERLFISLHTVKSHARHINDKLGVERRTQAVARAKHMGLLR”: the protein production result is “failed”.

With “MTDGTTDGLNKAAVFICHCSGNISEHVDINTVKKTLKAEGFSVYDYEYLCSSQGQALIKKKISEGHVDRVVIGSCTPSKHGTLFKKCIQETGLNRAGLEIANLREQCAWVHPDREGATEKALSLLKAKLKRLENIEPLEDIKVDIAQQVLVIGGGIAGITAALNLADNGVPTFLVEKDSSIGGQMAKIGKIFSPDKLAEECAMCSLSPLMNEVAAHPRITLLTWTEVEKLSGSAGNFTVRLKKKPRYVKDNCIACGKCSRVCPVSVEDEFNCGYMDKKAISLRFSQSVPKVYFIDPDSCLRLKGENCGKCAEACKTGAIDFSQKEEIIELNVGAVVVATGFEEYDVSQKPQYGYGIFENVLTQMELARVLGINGPTKGELLRISDFSKASSDPAPSTCDSRCESSSDHPFEVETPERIVMIQCVGSRDEKEGGNRYCSRYCCMAALKHASLIKKRYPKTEITICYIDMRAFGFYENYYRAVQETGVNFVRGRPAEVIEKPDKSLVVRVEDTLSQKIKEIPADMVVLSAAMVPSPGTKKIASVLNLSQDESGFIKERHSKLKPVDCSLDGIFVCGTAQSPKDVTDTIAQAGLAAVRARAFITDSPKVLDNEIAAINQLLCTRCGECLKCPFDALSINENGRVVLDPLICTGCGYCTELCREGAVQIAGFTKSQLKAELEGVLEEGDVLGFVNSGISSLTCDNIGNSVLTYPSSVKLIKVPTCLIVDRDLVLHAFRHGASSVLFVEDPPDSPRAEVIYPLTVSHFEKLKEELGDSGKRIHFKKAYVPNIKGLAGTFTSLAREGEMIK”, the protein production entry is “failed”. The entry for “MTDKKSENKTIQGASSLSLENRKILSITGVNEVINFDEEKISLKTDLGPLLIKGSELKMNKLDVQNGEVIIGGFISNIDYLNKKNKRKRNINLLSKIFKLEHHHHHH” is “not failed”; for “MTDKTSLSYKDAGVDIDAGNALVGRIKGVVKKTRRPEVMGGLGGFGALCALPQKYREPVLVSGTDGVGTKLRLAMDLKRHDTIGIDLVAMCVNDLVVQGAEPLFFLDYYATGKLDVDTASAVISGIAEGCLQSGCSLVGGETAEMPGMYHGEDYDVAGFCVGVVEKSEIIDGSKVSDGDVLIALGSSGPHSNGYSLVRKILEVSGCDPQTTELDGKPLADHLLAPTRIYVKSVLELIEKVDVHAIAHLTGGGFWENIPRVLPDNTQAVIDESSWQWPEVFNWLQTAGNVEHHEMYRTFNCGVGMIIALPAPEVDKALALLNANGENAWKIGIIKASDSEQRVVIE” it is “not failed”. The entry for “MTDMNPDIEKDQTSDEVTVETTSVFRADFLSELDAPAQAGTESAVSGVEGLPPGSALLVVKRGPNAGSRFLLDQAITSAGRHPDSDIFLDDVTVSRRHAEFRLENNEFNVVDVGSLNGTYVNREPVDSAVLANGDEVQIGKFRLVFLTGPKQGEDDGSTGGP” is “failed”.

For “MTDPLQRPRRKDPLRRTTLGHVPPRLRSRAAMEMATHAAQGRFVLQTCESCDRATYPPRDRCPNCWGELVWREQDAGGQVAAETTIRHSTDTYFRNHMPWRIGTVRLDAGPTAIVHLHGEAGVGDRVNMVLKLDRGGNPALFAMPRGDVPNMQDDPQFRSFTADPKHRRVLVTDGRTDTGQAIARALLDAGAAKVFVGDCAPLMRFAGKQQLAALDGAELVPLDVTDTHSVGNLAAQLGGRIDIVINTAGQVREGGVAFGAKLSDLQAGLDTGVVGLMRLAQAFGPALGARSDDGVNSAAAFLDVVPVSGLSGQSGYSGTAASAAARLSLLSGFRGEMQKAGIRVMSVLTGPVDDAWHQRLPQPKTAPSHLARTVVAALRDGQEISCAGDVAKDLFARWRADPLLTMREENR”, the protein production entry was “failed”.

With “MTDPSQMQAEELLSFLEEGGTLKMLHDVSADTIEHIYAVGYNFFQSGKIEQAAKVFQLLSMLDHYQARFFIGLGAARQELGEYLQAIDAYSYAALVDINDPRPPFHSAECHLKLEQLTEAESGFYSAKEMSAGKSQYADLHQRAGIMLEAVRNKRSNLEHHHHHH”, the protein production result is “not failed”.

As for “MTDQIREHLVSMLVHNKPGVMRKVANLFARRGFNISSITVGESETPGLSRLVIMVKGDDKTIEQIEKQAYKLVEVVKVTPIDPLPENRVEREMALIKVRFDEDKQEIFQLVEIFRGKIIDVSREGAIIEITGARSKVEAFINLLPQKQVEEIARTGIVAMNRWNVKEGEGF”, the protein production result is “not failed”. Turning to “MTDQSVRIIEAALRLYMKKPPHEVSIEEIAREAKVSKSLIFYHFESKQKLLEEAVMHAFRKMMEEFNPRSVEEVVDYGIGFIAERREFIEFMMYALSQVRIEELERMFGEALEKVASLFEGCRHPRETAIALMAMLDGLSIYSLYFDLGKLEKYREIAMEFVESRRVRA”, the protein production result is “not failed”.
